Laboratory results reported in EP4640235A1 (Toray Industries, Inc., dated 2025).
Residue numbers refer to the chain shown, from its start.

T1: human CAPRIN-1 protein expressed on cell membrane surfaces of human cancer cells (human, UniProt Q14444 2-709)
T1 construct: whole, on cells; Endogenous protein on human cancer cells; Flow cytometry was done without permeation of the cell membranes
T1 sequence (looked up): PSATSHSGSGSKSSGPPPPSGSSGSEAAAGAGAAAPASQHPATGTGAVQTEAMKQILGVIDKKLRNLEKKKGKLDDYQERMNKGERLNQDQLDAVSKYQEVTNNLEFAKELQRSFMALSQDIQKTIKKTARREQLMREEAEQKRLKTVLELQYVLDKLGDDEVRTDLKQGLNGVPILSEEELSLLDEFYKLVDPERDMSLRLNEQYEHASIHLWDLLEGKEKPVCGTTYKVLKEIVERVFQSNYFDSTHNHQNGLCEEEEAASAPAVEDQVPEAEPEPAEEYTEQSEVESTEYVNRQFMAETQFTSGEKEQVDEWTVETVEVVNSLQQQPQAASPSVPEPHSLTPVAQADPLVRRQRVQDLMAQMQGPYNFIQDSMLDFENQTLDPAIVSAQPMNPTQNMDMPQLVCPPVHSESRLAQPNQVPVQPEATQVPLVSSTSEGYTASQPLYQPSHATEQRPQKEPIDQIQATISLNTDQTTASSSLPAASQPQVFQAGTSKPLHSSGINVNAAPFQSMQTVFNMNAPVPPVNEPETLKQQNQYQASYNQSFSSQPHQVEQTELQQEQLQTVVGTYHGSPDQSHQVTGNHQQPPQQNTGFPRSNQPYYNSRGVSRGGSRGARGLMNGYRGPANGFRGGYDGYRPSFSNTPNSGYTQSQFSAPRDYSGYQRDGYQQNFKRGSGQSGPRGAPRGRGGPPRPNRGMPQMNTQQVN

B1: anti-CAPRIN-1 antibody (d) (antibody, V domains shown)
VH: QSLEESGGDLVKPGASLTLTCTASGFSFSGSYYMSWVRQAPGKGLEWIAYIYIGDGVTAYANWAKGRFTISKASSTTVTLQMTSLTAADTATYFCARGNKLWGPGTLVTVSS
VL: DVVMTQTPASVEAAVGGTVTIKCQASQSISSYLAWYQQKPGQPPKRLIYDASNLDSGVPSRFKGSGSGTDFTITISDLECADAATYYCQCTAVSSATIYGNAFGGGTEVVVK
B2: anti-CAPRIN-1 antibody (j) (antibody, V domains shown)
VH: DAELVKPGASVKISCKASGYTFTDHSIHWVQQKPEQGLEWIGYISPGNGNIKYNEKFKGKATLTADKSSSTAYMQLNSLTSEDSAVYFCKRSLGRGGPYYFDYWGQGTTVTVSS
VL: DIVLTQAAPSLPVTPGESVSISCRSSKSLLHSNGNTYLYWFLQRPGQSPQLLIYRMSNLASGVPDRFSGSGSGTAFTLRISRVEAEDVGVYYCMQHREYPVTFGSGPN
B3: anti-CAPRIN-1 antibody (e) (antibody, V domains shown)
VH: AVTLDESGGGLQTPGGALSLVCKASGFTFSGYDMLWVRQAPGKGLEWVAGIGSTGGGTDYGAAVKGRATISRDNGQSTVRLQLNNLRAEDTATYYCAKVAGGCNSGYCRDSPGSIDAWGHGTEVIVS
VL: AVTQQPASVSANPGETVKITCSGGGSRNYYGWYQQKSPGSVPVTVIYYDDQRPSNIPSRFSGALSGSTSTLTITGVQADDEAVYFCGSADSNTYEGSFGAGTTLTVL
B4: anti-CAPRIN-1 antibody (o) (antibody, V domains shown)
VH: EVQLHQFGAELVKPGASVKISCKASGYTFTDYNMDWVKQSHGKSLEWIGDINPNYDSTSYNQKFKGKATLTVDKSSSTAYMELRSLTSEDTAVYYCARSRSYDYEGFAYWGQGTLVTVSA
VL: DIQMTQSPASLSASVGETVTITCRASGNIHNYLAWYQQKQGKSPQLLVYNAKTLADGVPSRFSGSGSGTQYSLKINSLQPEDFGSYYCQHFWSTLTFGAGTKLELKR
B5: anti-CAPRIN-1 antibody (a) (antibody, V domains shown)
VH: AVTLDESGGGLQMSRGGLSLVCKASGFDFSSYQMNWIRQAPGKGLEFVAAINKFGNSTGHGAAVKGRVTISRDNGQSTVRLQLNNLRAEDTAIYFCTKHAYGYCGSGTWCAAGEIDAWGHGTEVIVSS
VL: QAASTQPSSVSANPGETVEITCSGGGSYSYGWFQQKSPGSAPVTVIYYNNKRPSDIPSRFSGSKSGSTGTLTITGVQADDEAVYYCGSGDSTDTAVFGAGTTLTVLG
B6: anti-CAPRIN-1 antibody (i) (antibody, V domains shown)
VH: GAELVRSGASVKMSCKASGYSFTDYNMYWVKQTPGQGLEWIGYIYPGNGGTNYNQKFKGKATLTADTSSSTAYMQISSLTSEDSAVYFCARDYDDGGYAMDYWGQGTTVTVSS
VL: DIQMTQSPASLSASVGETVTITCRASGNIHNYLTWYQQKQGKSPQLLVYNAKTLADGVPSRFSGSGSGTQYSLKINRLQPEDFGSYYCQHFWNIPWTFGGGTKLNSR
B7: anti-CAPRIN-1 antibody (c) (antibody, V domains shown)
VH: AVTLDESGGGLQTPGGGLSLVCKASGFTFSSFDMGWVRQAPGKGLEFVAQINDAGSRTWYATAVKGRATISRDNGQTTVRLQLNNLRAEDTGTYYCTRGSGYVGAGAIDAWGHGTEVIVS
VL: AALTQPSSVSANPGETVKITCSGGSGYYGWYQQQKSPGSAPVTVIYQNDKRPSDIPSRFSGSGSGSTNTLTITGVQAEDEAVYFCGRYDSTDSGIFGAGTTLTVL
B8: anti-CAPRIN-1 antibody (af) (antibody, V domains shown)
VH: EVQLVESGGGLVQPGGSLRLSCAASGFSLSSHSLGWVRQAPGKGLEWIGDIRSGGSAYYANWAKGRFTISRDNSKNTLYLQMNSLRAEDTAVYYCTRTNGPSDLTNRLDLWGQGTLVTVSS
VL: QVLTQSPSSLSASVGDRVTINCQASQSLYNNENLAWFQQKPGKVPKRLIYGASTLASGVSSRFSGSGSGTEFTLTISSLQCEDFAIYYCLGEFSCGSADCFAFGGGTKVEIK
B9: anti-CAPRIN-1 antibody (ah) (antibody, V domains shown)
VH: B8 VH
VL: EQVLTQSPSSLSASVGDRVTINCQASQSLYNNENLAWFQQKPGKVPKRLIYGASTLASGVSSRFSGSGSGTEFTLTISNLQPEDFAIYYCLGEFSCGSADCFAFGGGTKVEIK
B10: anti-CAPRIN-1 antibody (aj) (antibody, V domains shown)
VH: B8 VH
VL: B9 VL with Q2I, I87T
B11: anti-CAPRIN-1 antibody (b) (antibody, V domains shown)
VH: B8 VH with V2Q, Q3S
VL: B8 VL
B12: anti-CAPRIN-1 antibody (ak) (antibody, V domains shown)
VH: B8 VH with Y94F
VL: B9 VL
B13: anti-CAPRIN-1 antibody (ag) (antibody, V domains shown)
VH: B8 VH with Y94F
VL: B8 VL
B14: anti-CAPRIN-1 antibody (ai) (antibody, V domains shown)
VH: B8 VH with Y94F
VL: B9 VL with Q2I, I87T
B15: anti-CAPRIN-1 antibody (z) (antibody, V domains shown)
VH: GPDLVKPGASVKISCKASGYSFTAYYMHWVKQSHGKSLEWIGRVNPNNGGTTYNQKFKGKAILTVDKSSSTAYMELRSLTFEDSAVYYCARRIYYGYFDYWGQGTTVTVSS
VL: AFFAVSLGQRATISCKASQSVDYDGDSYMNWYQQKPGQPPKLLIYVASNLESGVPARFSGSGSGTDFTLNIHPVEEEDAATYYCQQSNEDPYTFGGGTKLEIKQ

Molecular target: T1, human CAPRIN-1 protein expressed on …
Assay: flow cytometry on cancer cells

Does B1 bind?
Result: binds

Does B2 bind?
Result: binds

Does B3 bind?
Result: binds

Does B4 bind?
Result: binds

Does B5 bind?
Result: binds

Does B6 bind?
Result: binds

Does B7 bind?
Result: binds

Does B8 bind?
Result: binds

Does B9 bind?
Result: binds

Does B10 bind?
Result: binds

Does B11 bind?
Result: binds

Does B12 bind?
Result: binds

Does B13 bind?
Result: binds

Does B14 bind?
Result: binds

Does B15 bind?
Result: binds
